Experimental data published in US20230272086A1 (CHIA TAI TIANQING PHARMACEUTICAL GROUP, published 2023).
Positions count from the first letter of the chain named.

Tests used:
[1] = target: T1, recombinant protein containing hST2 extracellular domain with mouse antibody heavy chain Fc tag (hST2-ECD-mFc) (human); assay: ELISA, plate coated with hST2-ECD-mFc
T1 construct: Used for SPR and for ELISA of chimeric and humanized antibodies; also called human ST2 antigen
T1 chain: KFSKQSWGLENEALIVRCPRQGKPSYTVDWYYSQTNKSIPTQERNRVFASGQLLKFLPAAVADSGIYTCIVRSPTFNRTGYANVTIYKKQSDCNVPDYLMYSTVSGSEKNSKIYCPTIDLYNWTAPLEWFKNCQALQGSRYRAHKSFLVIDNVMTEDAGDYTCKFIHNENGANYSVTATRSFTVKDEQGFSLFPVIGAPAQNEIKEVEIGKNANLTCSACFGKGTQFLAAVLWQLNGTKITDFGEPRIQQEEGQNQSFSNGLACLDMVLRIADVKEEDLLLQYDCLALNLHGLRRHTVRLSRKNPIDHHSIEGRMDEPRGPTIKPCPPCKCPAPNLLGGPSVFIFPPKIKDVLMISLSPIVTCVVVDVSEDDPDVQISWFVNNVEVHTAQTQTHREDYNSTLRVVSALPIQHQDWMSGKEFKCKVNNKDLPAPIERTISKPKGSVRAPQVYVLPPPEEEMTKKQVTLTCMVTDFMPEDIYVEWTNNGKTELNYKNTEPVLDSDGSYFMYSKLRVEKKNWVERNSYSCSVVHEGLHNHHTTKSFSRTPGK
Procedure: ST2 binding screening and analysis of antibodies were performed by ELISA using hST2-ECD-mFc (for assays of chimeric and humanized antibodies), hST2-ECD-hFc protein (for assays of hybridoma antibodies) and Cyno-ST2-his (Sino biological, 90915-C08H) as antigens. A high-adsorption 96-well plate (Costar, 9018) was coated with 2 µg/mL hST2-ECD-mFc or Cyno-ST2-his antigen at 100 µL/well and incubated overnight at 4° C. After the antigen not adsorbed was well washed off, the non-specific binding sites were blocked with a blocking buffer (PBS containing 2% bovine serum albumin). After the plate was washed three times with a washing buffer (PBS containing 0.05% (v/v) Tween 20), the anti-ST2 antibodies (serially diluted 3-fold from an initial concentration of 10 nM to 8 concentrations: 3.333 nM, 1.111 nM, 0.370 nM, 0.123 nM, 0.041 nM, 0.014 nM, 0.005 nM, and 0.002 nM) were added at 100 µL/well, and the plate was incubated at room temperature for 1 h. After the plate was washed with the washing buffer, a horseradish peroxidase (HRP)-conjugated secondary antibody was added, and the plate was incubated for another 60 min. After the plate was washed with the washing buffer, the substrate TMB solution (Thermo, 00-4201-56) was added at 100 µL/well, and the plate was incubated at room temperature for 2 min. A stop solution (2 N H₂SO₄) was added at 100 µL/well to terminate the reactions. Colorimetric signals were generated and read at 450 nm using a microplate reader (PE, Envision). The data were analyzed using GraphPad Prism5, and the EC₅₀ values were calculated.
The humanized antibodies hz31C81-1.1 (the amino acid sequence of the heavy chain set forth in SEQ ID NO: 75 and the amino acid sequence of the light chain set forth in SEQ ID NO: 81) and hz31C8-1.2 (the amino acid sequence of the heavy chain set forth in SEQ ID NO: 77 and the amino acid sequence of the light chain set forth in SEQ ID NO: 81) were subjected to affinity, binding, blocking and cell function analyses using the methods described in Example 4, Example 5, Example 6, Example 7, Example 8, Example 9 and Example 10.

[2] = target: T2, IL1R2/CD121b (Sino biological, 10111-H08H) (UniProt P27930 14-343); assay: ELISA, plate coated with 2 µg/mL receptor
T2 construct: Bought protein
T2 sequence (looked up): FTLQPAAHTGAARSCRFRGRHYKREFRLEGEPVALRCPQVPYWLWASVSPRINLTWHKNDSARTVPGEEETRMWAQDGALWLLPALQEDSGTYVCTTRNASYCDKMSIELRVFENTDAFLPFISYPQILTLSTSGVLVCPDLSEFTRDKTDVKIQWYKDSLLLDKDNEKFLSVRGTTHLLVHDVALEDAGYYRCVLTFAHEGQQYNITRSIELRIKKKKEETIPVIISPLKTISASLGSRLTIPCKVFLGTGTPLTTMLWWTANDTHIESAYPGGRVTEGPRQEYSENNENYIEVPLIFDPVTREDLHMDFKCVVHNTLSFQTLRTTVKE
Procedure: The anti-ST2 antibodies were diluted with PBS buffer to a concentration of 1.5 mg/mL. After being treated at 72° C. for 5 min, the samples were assayed by ELISA for their binding activity for an antigen The ELISA procedure is as follows: A 96-well plate was coated with 2 µg/mL hST2-ECD-mFc as the antigen at 100 µL/well and incubated at 4° C. overnight. After the antigen not adsorbed was well washed off, the non-specific binding sites were blocked with a blocking buffer (PBST containing 1% bovine serum albumin). After the plate was washed three times with a washing buffer (PBST, PBS containing 0.05% (v/v) Tween 20), the anti-ST2 antibodies (serially diluted 3-fold from an initial concentration of 1.5 µg/mL to 8 concentrations) were added at 100 µL/well, and the plate was incubated at 37° C. for 1 h. […] After the plate was incubated at room temperature for 5 min, a stop solution (2 N H₂SO₄) was added to stop the reactions. The signals were read at 450 nm using a plate reader (PE, Envision). The data were analyzed using GraphPad Prism5, and the EC₅₀ values were calculated.
ST2 belongs to the IL1R receptor family. The cross-reactivity of the anti-ST2 antibodies with the IL1R family receptors was determined by ELISA. The IL1R family receptors include IL1R⅟CD121a (Sino biological, 10126-H08H), IL1R2/CD121b (Sino biological, 10111-H08H), IL1R3/IL1RAP (Sino biological, 10121-H08H), IL1R7/IL-18RAcP (Sino biological, 10176-H08H), IL1R8/IL1RAPL1 (Sino biological, 10177-H08H), and IL1R9/IL1RAPL2 (Sino biological, 10156-H08H). ELISA assays were performed using the proteins described above as antigens (2 µg/mL). See Example 13 for the specific ELISA procedure. No binding means that the antibody remains unbound to the antigen when at the highest concentration.

B1: Chimeric 31C8 (antibody, human IgG2, kappa, V domains shown)
VH: QVQLQQSGPELVRPGASVTLSCKASGYIFIDSEMHWVKQTPVHGLEWIGAIDPETGDTVYNQKFKGKATLTADKSSSTASMELSSLTSEDSAVYYCTGSTTDYYFAYWGQGTTLTVSS
VL: DIVMTQAAFSNPVTLGTSASISCRSSKSLLHSNGIIYLYWYLQKPGQSPQLLIYQMSNLASGVPDRFSSSGSGTDFTLRISRVEAEDVGVYYCAQNLELPFTFGSGTKLEIKR
notes: also called xi31C8
[1]
  EC50: 0.0865 nM
[2]
  binding result: no binding

B2: RG6149 (antibody Ab2 in CN104334582, prepared in-house) (antibody, human IgG2, kappa, V domains shown)
VH: EVQLVQSGAEVKKPGESLKISCKGSGYSFTNYWIGWVRQMPGKGLEWMGIIYPGNSDTRFSPSFQGQVTISADKSITTAYLQWSSLKASDTAMYYCARHGTSSDYYGLDVWGQGTTVTVSS
VL: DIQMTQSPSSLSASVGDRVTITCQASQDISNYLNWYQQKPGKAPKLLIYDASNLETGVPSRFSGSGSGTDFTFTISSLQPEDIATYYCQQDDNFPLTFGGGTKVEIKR
notes: Control anti-ST2 antibody
[1]
  EC50: 0.113 nM
[2]
  binding result: no binding

B3: GSK3772847 (antibody STLM208 in CN104411333, prepared in-house) (antibody, human IgG2, kappa, V domains shown)
VH: EVQLLESGGGLVQPGGSLRLSCAASGFTFSIYDMIWVRQAPGKGLEWVSSIRGEGGGTYYADSVKGRFTISRDNSKNTLYLQMNSLRAEDTAVYYCARDPWSTEGSFFVLDYWGQGTLVTVSS
VL: EIVLTQSPATLSLSPGERATLSCRASQSVDDDLAWYQQKPGQAPRLLIYDASNRATGIPARFSGSGSGTDFTLTISSLEPEDFAVYYCQQYITAPLTFGQGTKVEIKR
notes: Control anti-ST2 antibody
[1]
  EC50: 0.127 nM

B4: Humanized 31C8-1.1 (antibody, human IgG2, kappa, V domains shown)
VH: EVQLVQSGAEVKKPGATVKISCKASGYIFIDSEMHWVQQAPGKGLEWMGAIDPETGDTVYAEKFQGRVTITADKSSSTAYMELSSLRSEDTAVYYCTGSTTDYYFAYWGQGTLVTVSS
VL: DIQMTQSPSSLSASVGDRVTITCRSSKSLLHSNGIIYLYWYQQKPGKAPKLLIYQLSNLASGVPSRFSSSGSGTDFTLTISSLQPEDFATYYCAQNLELPFTFGQGTKVEIKR
notes: also called hz31C8-1.1; hz31C81-1.1
[1]
  EC50: 0.0879 nM
[2]
  binding result: no binding

B5: Humanized 31C8-1.2 (antibody, human IgG2, kappa, V domains shown)
VH: B4 VH with E1Q, E10K, E62K, Q65K
VL: B4 VL
notes: also called hz31C8-1.2; hz31C81-1.2
[1]
  EC50: 0.0937 nM
[2]
  binding result: no binding
